# Where two headings read alike, the source gives them in different places.
# How the values were obtained:
# [1] = biological target: T1, neonatal Fc receptor (FcRn), FCGRT + beta2-microglobulin heterodimer (UniProt P55899+P61769); assay: biolayer interferometry (Octet Red384), dissociation after a pH switch; conditions: pH 7.2; 150 mM NaCl; association in 50 mM phosphate pH 6; dissociation in 50 mM phosphate pH 7.2 (Methods; Results and Discussion say pH 7.4)
# [2] = biological target: T1, neonatal Fc receptor (FcRn), FCGRT + beta2-microglobulin heterodimer; assay: as above; conditions: pH 7.2; 150 mM NaCl; association in 50 mM phosphate pH 6; dissociation in 50 mM phosphate pH 7.2 (Methods; Results and Discussion say pH 7.4); remark: listed apart in the source
# [3] = biological target: human FcRn (human FCGRT & B2M heterodimer) (human) (UniProt P55899); assay: BLI; Octet Red384, multicycle kinetics; FcRn amine-coupled to AR2G tips, IgG1 2.5-80 nM; association and dissociation at pH 6 (50 mM phosphate, 150 mM NaCl, 0.1% Tween 20); heterogeneous ligand model; KD observed
# [4] = biological target: human FcγRI with a C-terminal AVI-tag and C-terminal His-tag (Sino Biological) (human) (UniProt P12314); assay: SPR; Biacore T200, single-cycle kinetics; biotinylated FcγRI captured on a CAPchip, IgG1 injected at 0.06-5 nM; HBS-EP+; 37 °C; 1:1 kinetic model; KD observed
# Sequence of UniProt P12314 (P12314 16-292): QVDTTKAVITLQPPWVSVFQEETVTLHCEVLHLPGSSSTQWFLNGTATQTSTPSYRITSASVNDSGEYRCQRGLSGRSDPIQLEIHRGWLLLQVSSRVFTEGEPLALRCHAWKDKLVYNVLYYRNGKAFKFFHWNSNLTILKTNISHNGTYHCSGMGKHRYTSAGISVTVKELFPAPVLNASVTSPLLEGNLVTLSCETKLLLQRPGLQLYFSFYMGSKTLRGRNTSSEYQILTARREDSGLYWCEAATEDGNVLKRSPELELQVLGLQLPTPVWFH
# [5] = biological target: human FcRn (human FCGRT & B2M heterodimer) (human) (UniProt P55899); assay: BLI; Octet Red384; FcRn amine-coupled to AR2G tips; 320 nM IgG1 associated at pH 6 and dissociated at pH 7.2; fraction bound 5 s after the start of dissociation (response at 0 s = 100%)
# [6] = biological target: recombinant human FcγRIIIa (human) (UniProt P08637); assay: SPR; SPR imaging (IBIS MX96); biotinylated Fcγ receptors on a streptavidin G-Strep SensEye sensor, IgG injected; HBS pH 7.2/0.05% Tween-80; binding level at equilibrium (2 min) relative to a reference sample set to 100%; 50 and 250 μg/mL IgG1 (FcγRIIa, FcγRIIIa) or 250 and 1000 μg/mL (FcγRIIb, FcγRIIIb); corrected for decay of the surface
# Sequence of UniProt P08637 (P08637 17-254): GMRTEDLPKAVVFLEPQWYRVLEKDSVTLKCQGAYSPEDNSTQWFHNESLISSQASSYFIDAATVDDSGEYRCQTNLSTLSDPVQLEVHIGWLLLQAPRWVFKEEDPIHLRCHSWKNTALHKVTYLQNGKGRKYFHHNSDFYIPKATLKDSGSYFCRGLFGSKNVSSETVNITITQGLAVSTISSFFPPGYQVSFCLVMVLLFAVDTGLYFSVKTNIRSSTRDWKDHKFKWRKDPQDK
# [7] = biological target: recombinant human FcγRIIb (human) (UniProt P31994); assay: as above
# Sequence of UniProt P31994 (P31994 43-310): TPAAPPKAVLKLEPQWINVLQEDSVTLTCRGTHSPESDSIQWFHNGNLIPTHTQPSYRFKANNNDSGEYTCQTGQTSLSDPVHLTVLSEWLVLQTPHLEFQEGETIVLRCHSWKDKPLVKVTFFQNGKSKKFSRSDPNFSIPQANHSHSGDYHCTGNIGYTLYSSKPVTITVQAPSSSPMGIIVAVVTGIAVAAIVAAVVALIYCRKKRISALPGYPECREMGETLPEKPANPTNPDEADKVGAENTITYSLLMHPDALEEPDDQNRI
# [8] = biological target: recombinant human FcγRIIa (human) (UniProt P12318); assay: as above
# Sequence of UniProt P12318 (P12318 34-317): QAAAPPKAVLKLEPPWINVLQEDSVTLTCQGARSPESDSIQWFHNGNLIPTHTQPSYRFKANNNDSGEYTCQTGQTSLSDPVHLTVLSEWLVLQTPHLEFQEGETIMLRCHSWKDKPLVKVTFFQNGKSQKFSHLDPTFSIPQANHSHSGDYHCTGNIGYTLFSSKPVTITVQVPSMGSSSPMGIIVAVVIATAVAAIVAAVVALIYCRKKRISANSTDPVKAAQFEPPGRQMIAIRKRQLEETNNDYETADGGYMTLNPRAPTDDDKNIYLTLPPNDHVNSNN
# [9] = biological target: recombinant human FcγRIIIb (human) (UniProt O75015); assay: as above
# Sequence of UniProt O75015 (O75015 17-200): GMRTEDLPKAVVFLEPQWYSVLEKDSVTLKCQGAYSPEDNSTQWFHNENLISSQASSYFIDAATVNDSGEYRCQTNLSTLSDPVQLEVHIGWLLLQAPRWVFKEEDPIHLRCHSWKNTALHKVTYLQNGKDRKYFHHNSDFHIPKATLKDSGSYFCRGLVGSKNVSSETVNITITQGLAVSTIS
# [10] = biological target: human FcRn (human FCGRT & B2M heterodimer) (human) (UniProt P55899); assay: BLI; Octet Red384, multicycle kinetics; FcRn amine-coupled to AR2G tips, IgG1 2.5-80 nM; association and dissociation at pH 6 (50 mM phosphate, 150 mM NaCl, 0.1% Tween 20); heterogeneous ligand model; KD observed; remark: listed apart in the source
# [11] = biological target: human FcγRI with a C-terminal AVI-tag and C-terminal His-tag (Sino Biological) (human) (UniProt P12314); assay: SPR; Biacore T200, single-cycle kinetics; biotinylated FcγRI captured on a CAPchip, IgG1 injected at 0.06-5 nM; HBS-EP+; 37 °C; 1:1 kinetic model; KD observed; remark: listed apart in the source
# [12] = biological target: human FcRn (human FCGRT & B2M heterodimer) (human) (UniProt P55899); assay: BLI; as a4 (FcRn on AR2G tips, pH 6), but fitted with a 1:1 binding model; not corrected for the molecular weight of the aggregates; apparent
# [13] = stress condition 40 °C‐1000 r.p.m._24 h
# [14] = stress condition 40 °C‐1000 r.p.m._48 h
# T1 sequence (P55899 24-297, chain 1 of 2): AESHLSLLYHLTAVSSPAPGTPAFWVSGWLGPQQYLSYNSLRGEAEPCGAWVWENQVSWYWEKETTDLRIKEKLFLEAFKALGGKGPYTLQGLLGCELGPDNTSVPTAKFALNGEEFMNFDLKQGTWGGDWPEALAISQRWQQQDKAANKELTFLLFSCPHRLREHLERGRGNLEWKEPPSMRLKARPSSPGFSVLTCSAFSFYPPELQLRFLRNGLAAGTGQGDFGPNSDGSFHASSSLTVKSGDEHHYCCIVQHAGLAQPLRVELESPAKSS
# T1 sequence (P61769 21-119, chain 2 of 2, further chain): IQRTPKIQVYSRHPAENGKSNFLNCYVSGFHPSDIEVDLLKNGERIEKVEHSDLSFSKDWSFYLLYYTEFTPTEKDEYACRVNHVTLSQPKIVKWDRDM
substance,measurement,setting,value
"human IgG1, 40 °C-1000 r.p.m._72 h",Fraction bound (5 s after start of dissociation at neutral pH),[1],8.6%
"human IgG1, monomer fraction of the DSS cross-linking preparation",Fraction bound (5 s after start of dissociation at neutral pH),[2],8.9%
human IgG1 with 8% afucosylation (antibody),Kd,[3],3.7 nM
same,Kd,[4],0.43 nM
human IgG1 with 70% afucosylation (antibody),fraction bound at neutral pH,[5],15.7%
same,relative binding (% of reference),[6],159%
same,relative binding (% of reference),[7],110%
same,relative binding (% of reference),[8],104%
same,relative binding (% of reference),[9],186%
same,Kd,[3],3.8 nM
same,Kd,[4],0.33 nM
"human IgG1, DG 100 (fully deglycosylated with PNGase F)",Fraction bound (5 s after start of dissociation at neutral pH),[1],4.1%
"human IgG1, AF 3 (3% afucosylated)",Fraction bound (5 s after start of dissociation at neutral pH),[1],14.3%
"human IgG1, 5 freeze/thaw cycles",Fraction bound (5 s after start of dissociation at neutral pH),[1],8.1%
"human IgG1, 10 freeze/thaw cycles",Fraction bound (5 s after start of dissociation at neutral pH),[1],7.4%
human IgG1 heated to 75 °C for 15 min at 300 r.p.m. (antibody),relative binding (% of reference),[6],389%
same,relative binding (% of reference),[7],> 1000%
same,relative binding (% of reference),[8],> 1000%
same,relative binding (% of reference),[9],> 1000%
"human IgG1, pH7.2_72 h control",Fraction bound (5 s after start of dissociation at neutral pH),[1],8.3%
human IgG1 after thermal/shake stress at 40 °C and 1000 r.p.m. (antibody),fraction bound at neutral pH,[5]; [13],7.9%
same,fraction bound at neutral pH,[5]; [14],7.3%
same,Kd,[3]; [13],5.5 nM
same,Kd,[3]; [14],5 nM
same,Kd,[3]; stress condition 40 °C‐1000 r.p.m._72 h,5.4 nM
same,Kd,[4]; [13],0.53 nM
same,Kd,[4]; [14],0.45 nM
human IgG1 with 3% afucosylation (antibody),fraction bound at neutral pH,[5],14.3%
same,relative binding (% of reference),[6],79.7%
same,relative binding (% of reference),[7],90.6%
same,relative binding (% of reference),[8],102%
same,relative binding (% of reference),[9],83.9%
same,Kd,[3],3.7 nM
same,Kd,[4],0.44 nM
"human IgG1 monoclonal antibody, reference sample",fraction bound at neutral pH,[5],7.5%
same,Kd,[10],6.3 nM
same,Kd,[11],0.66 nM
same,Kd,[3],5.7 nM
same,Kd,[4],0.56 nM
same,maximum response,[4],80 RU
"human IgG1, H2O2_0.25% oxidised",Fraction bound (5 s after start of dissociation at neutral pH),[1],6.4%
monomer fraction of the DSS-treated IgG1 sample (preparative SEC) (antibody),fraction bound at neutral pH,[5],8.9%
same,Kd,[10],7 nM
same,Kd,[11],0.52 nM
fully deglycosylated human IgG1 (PNGase F) (antibody),Kd,[3],6.3 nM
same,maximum response,[4],5 RU
"human IgG1, H2O2_0.5% oxidised",Fraction bound (5 s after start of dissociation at neutral pH),[1],7.7%
"covalent oligomer fraction of IgG1 (DSS cross-linked, preparative SEC) (antibody)",fraction bound at neutral pH,[5],17.7%
same,Kd,[12],3 nM
same,Kd,[11],0.07 nM
"human IgG1, AF 70 (70% afucosylated)",Fraction bound (5 s after start of dissociation at neutral pH),[1],15.7%
human IgG1 after repeated freeze/thaw cycles (antibody),fraction bound at neutral pH,[5]; stress condition F‐T 1,8.4%
same,fraction bound at neutral pH,[5]; stress condition F‐T 5,8.1%
same,fraction bound at neutral pH,[5]; stress condition F‐T 10,7.4%
same,relative binding (% of reference),[6]; stress condition F‐T 1,80.1%
same,relative binding (% of reference),[6]; stress condition F‐T 5,103%
same,relative binding (% of reference),[6]; stress condition F‐T 10,98.7%
same,relative binding (% of reference),[7]; stress condition F‐T 1,102%
same,relative binding (% of reference),[7]; stress condition F‐T 5,97.2%
same,relative binding (% of reference),[7]; stress condition F‐T 10,95.9%
same,relative binding (% of reference),[8]; stress condition F‐T 1,102%
same,relative binding (% of reference),[8]; stress condition F‐T 5,92.3%
same,relative binding (% of reference),[8]; stress condition F‐T 10,85.9%
same,relative binding (% of reference),[9]; stress condition F‐T 1,106%
same,relative binding (% of reference),[9]; stress condition F‐T 5,105%
same,relative binding (% of reference),[9]; stress condition F‐T 10,102%
same,Kd,[3]; stress condition F‐T 1,5.7 nM
same,Kd,[3]; stress condition F‐T 10,5.2 nM
"human IgG1, 40 °C-1000 r.p.m._24 h",Fraction bound (5 s after start of dissociation at neutral pH),[1],7.9%
"covalent dimer fraction of IgG1 (DSS cross-linked, preparative SEC) (antibody)",fraction bound at neutral pH,[5],17.3%
same,Kd,[11],0.08 nM
"human IgG1, deamidated pH8.0_96 h",Fraction bound (5 s after start of dissociation at neutral pH),[1],10%
"human IgG1, pH7.2_96 h control",Fraction bound (5 s after start of dissociation at neutral pH),[1],7.9%
"human IgG1, DG 0 (glycosylated control of the deglycosylation experiment)",Fraction bound (5 s after start of dissociation at neutral pH),[1],8.5%
"human IgG1, pH7.2_48 h control",Fraction bound (5 s after start of dissociation at neutral pH),[1],7.6%
human IgG1 heated to 70 °C for 15 min at 300 r.p.m. (antibody),relative binding (% of reference),[6],72.7%
same,relative binding (% of reference),[7],93.4%
same,relative binding (% of reference),[8],62.5%
same,relative binding (% of reference),[9],127%
"human IgG1, deamidated pH8.0_72 h",Fraction bound (5 s after start of dissociation at neutral pH),[1],6.5%
"human IgG1, 1 freeze/thaw cycle",Fraction bound (5 s after start of dissociation at neutral pH),[1],8.4%
human IgG1 after accelerated asparagine deamidation at pH 8 (antibody),fraction bound at neutral pH,[5]; stress condition pH8.0_48 h,7.8%
same,fraction bound at neutral pH,[5]; stress condition pH8.0_72 h,6.5%
human IgG1 after accelerated methionine oxidation with H2O2 (antibody),fraction bound at neutral pH,[5],6.4%
same,Kd,[3],6.2 nM
same,Kd,[4]; stress condition H2O2_0.1%,0.93 nM
same,Kd,[4]; stress condition H2O2_0.25%,0.53 nM
same,Kd,[4]; stress condition H2O2_0.5%,0.42 nM
"human IgG1 monoclonal antibody, reference (unstressed)",Fraction bound (5 s after start of dissociation at neutral pH),[1],8.3%
same,Fraction bound (5 s after start of dissociation at neutral pH),[2],7.5%
human IgG1 kept at 40 °C in HBS buffer pH 7.2 (control of the deamidation stress) (antibody),fraction bound at neutral pH,[5],7.6%
same,Kd,[3]; stress condition pH7.2_48 h,5.5 nM
same,Kd,[3]; stress condition pH7.2_72 h,6.1 nM
same,Kd,[3]; stress condition pH7.2_96 h,5.6 nM
same,Kd,[4]; stress condition pH7.2_48 h,0.59 nM
same,Kd,[4]; stress condition pH7.2_72 h,0.48 nM
same,Kd,[4]; stress condition pH7.2_96 h,0.58 nM
"human IgG1, deamidated pH8.0_48 h",Fraction bound (5 s after start of dissociation at neutral pH),[1],7.8%
"human IgG1, 40 °C-1000 r.p.m._48 h",Fraction bound (5 s after start of dissociation at neutral pH),[1],7.3%
"human IgG1, 0% deglycosylated control of the deglycosylation (antibody)",Kd,[3],4.9 nM
same,Kd,[4],0.52 nM

# — article PMC5623700
